Data taken from IntAct's records for PubMed 21708944.

B1: Chromosomal replication initiator protein DnaA (Escherichia coli (strain K12)), P03004 (parent)
chain: MSLSLWQQCLARLQDELPATEFSMWIRPLQAELSDNTLALYAPNRFVLDWVRDKYLNNINGLLTSFCGADAPQLRFEVGTKPVTQTPQAAVTSNVAAPAQVAQTQPQRAAPSTRSGWDNVPAPAEPTYRSNVNVKHTFDNFVEGKSNQLARAAARQVADNPGGAYNPLFLYGGTGLGKTHLLHAVGNGIMARKPNAKVVYMHSERFVQDMVKALQNNAIEEFKRYYRSVDALLIDDIQFFANKERSQEEFFHTFNALLEGNQQIILTSDRYPKEINGVEDRLKSRFGWGLTVAIEPPELETRVAILMKKADENDIRLPGEVAFFIAKRLRSNVRELEGALNRVIANANFTGRAITIDFVREALRDLLALQEKLVTIDNIQKTVAEYYKIKVADLLSKRRSRSVARPRQMAMALAKELTNHSLPEIGDAFGGRDHTTVLHACRKIEQLREESHDIKEDFSNLIRTLSS
partner: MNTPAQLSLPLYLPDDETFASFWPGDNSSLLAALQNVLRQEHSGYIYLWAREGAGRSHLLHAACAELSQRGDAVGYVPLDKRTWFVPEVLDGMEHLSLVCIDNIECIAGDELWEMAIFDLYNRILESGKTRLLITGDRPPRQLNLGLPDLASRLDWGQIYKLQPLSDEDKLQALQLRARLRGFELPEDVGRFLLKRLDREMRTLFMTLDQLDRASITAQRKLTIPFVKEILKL

Variants of: B1
Conditions: with hda_ecoli hda

Variant | effect of a mutation on the interaction
MSLSLWQQCLARLQDELPATEFSMWIRPLQAELSDNTLALYAPNRFVLDWVRDKYLNNINGLLTSFCGADAPQLRFEVGTKPVTQTPQAAVTSNVAAPAQVAQTQPQRAAPSTRSGWDNVPAPAEPTYRSNVNVKHTFDNFVEGKSNQLARAAARQVADNPGGAYNPLFLYGGTGLGKTHLLHAVGNGIMARKPNAKVVYMHSERFVQDMVKALQNNAIEEFKRYYRSVDALLIDDIQFFANKERSQEEFFHTFNALLEGNQQIILTSDRYPKEINGVEDRLKSRFGWGLTVAIEPPELETRVAILMKKADENDIRLPGEVAFFIAKRLRSNVRELEGALNRVIANANFTGRAITIDFVREALRDLLALQEKLVTIDNIQKTVAEYYKIKVADLLSKRRSRSVARPRQMAMALAKELTNHSLAEIGDAFGGRDHTTVLHACRKIEQLREESHDIKEDFSNLIRTLSS [P423A] | decreasing interaction
MSLSLWQQCLARLQDELPATEFSMWIRPLQAELSDNTLALYAPNRFVLDWVRDKYLNNINGLLTSFCGADAPQLRFEVGTKPVTQTPQAAVTSNVAAPAQVAQTQPQRAAPSTRSGWDNVPAPAEPTYRSNVNVKHTFDNFVEGKSNQLARAAARQVADNPGGAYNPLFLYGGTGLGKTHLLHAVGNGIMARKPNAKVVYMHSERFVQDMVKALQNNAIEEFKRYYRSVDALLIDDIQFFANKERSQEEFFHTFNALLEGNQQIILTSDRYPKEINGVEDRLKSRFGWGLTVAIEPPELETRVAILMKKADENDIRLPGEVAFFIAKRLRSNVRELEGALNRVIANANFTGRAITIDFVREALRDLLALQEKLVTIDNIQKTVAEYYKIKVADLLSKRRSRSVARPRQMAMALAKELTNHSAPEIGDAFGGRDHTTVLHACRKIEQLREESHDIKEDFSNLIRTLSS [L422A] | decreasing interaction
MSLSLWQQCLARLQDELPATEFSMWIRPLQAELSDNTLALYAPNRFVLDWVRDKYLNNINGLLTSFCGADAPQLRFEVGTKPVTQTPQAAVTSNVAAPAQVAQTQPQRAAPSTRSGWDNVPAPAEPTYRSNVNVKHTFDNFVEGKSNQLARAAARQVADNPGGAYNPLFLYGGTGLGKTHLLHAVGNGIMARKPNAKVVYMHSERFVQDMVKALQNNAIEEFKRYYRSVDALLIDDIQFFANKERSQEEFFHTFNALLEGNQQIILTSDRYPKEINGVEDRLKSRFGWGLTVAIEPPELETRVAILMKKADENDIRLPGEVAFFIAKRLRSNVRELEGALNRVIANANFTGRAITIDFVREALRDLLALQEKLVTIDNIQKTVAEYYKIKVADLLSKRRSRSVARPRQMAMALAKELTNHSGPEIGDAFGGRDHTTVLHACRKIEQLREESHDIKEDFSNLIRTLSS [L422G] | decreasing interaction
